Columns and labels:
GST–WDR44 ΔC = molecular target: T1, GST–WDR44 ΔC (human, UniProt Q5JSH3 1-472); experiment: pull-down; in vitro: GST-tagged WDR44 or MICAL1 domains on glutathione sepharose beads with an equal amount of Thrombin-released GRAF2 SH3, 30 min 4°C, washed in bacterial lysis buffer (20 mM Hepes pH 7.4, 1 mM DTT, NaCl); Coomassie staining; conditions: both partners purified
T1 construct: aa 1–472 of human WDR44 (N-tag clone: forward primer begins at codon 2); source: E. coli BL21(DE3) pLysS, purified on glutathione sepharose beads; not shown: GST, N-terminal, kept
T1 sequence (looked up): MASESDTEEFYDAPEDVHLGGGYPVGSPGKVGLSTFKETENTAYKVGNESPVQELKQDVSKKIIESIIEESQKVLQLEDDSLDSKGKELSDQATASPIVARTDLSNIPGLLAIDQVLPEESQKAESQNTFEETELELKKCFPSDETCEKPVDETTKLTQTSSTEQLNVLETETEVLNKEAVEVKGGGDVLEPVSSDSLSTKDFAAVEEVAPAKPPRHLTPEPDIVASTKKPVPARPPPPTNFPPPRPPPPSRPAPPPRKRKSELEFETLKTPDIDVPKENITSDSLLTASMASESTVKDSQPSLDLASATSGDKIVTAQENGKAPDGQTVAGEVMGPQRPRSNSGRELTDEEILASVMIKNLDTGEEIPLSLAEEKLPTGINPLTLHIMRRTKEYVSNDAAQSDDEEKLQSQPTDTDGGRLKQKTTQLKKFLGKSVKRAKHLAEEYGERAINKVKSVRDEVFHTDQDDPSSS

GST–MICAL1 ΔMOΔCH = molecular target: T2, GST–MICAL1 ΔMOΔCH (human, UniProt Q8TDZ2 651-1067); experiment: as above; conditions: both partners purified
T2 construct: aa 651–1067 of human MICAL1; source: E. coli BL21(DE3) pLysS, purified on glutathione sepharose beads; not shown: GST, N-terminal, kept
T2 sequence (looked up): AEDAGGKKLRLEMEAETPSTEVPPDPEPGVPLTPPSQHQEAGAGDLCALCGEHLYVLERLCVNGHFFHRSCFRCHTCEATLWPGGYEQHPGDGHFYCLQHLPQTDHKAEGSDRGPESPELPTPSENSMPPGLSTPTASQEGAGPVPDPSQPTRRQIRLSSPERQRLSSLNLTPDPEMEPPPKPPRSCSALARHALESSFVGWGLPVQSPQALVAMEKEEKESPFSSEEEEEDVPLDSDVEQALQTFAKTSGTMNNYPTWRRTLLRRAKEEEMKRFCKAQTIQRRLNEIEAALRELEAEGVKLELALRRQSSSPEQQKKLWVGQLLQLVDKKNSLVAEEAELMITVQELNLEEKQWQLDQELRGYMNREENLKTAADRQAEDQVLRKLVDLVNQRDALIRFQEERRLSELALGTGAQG

- binding result (GST–WDR44 ΔC): binds
- binding result (GST–MICAL1 ΔMOΔCH): binds
B1: GRAF2 SH3 (released from GST by Thrombin) (domain or fragment, human, UniProt A1A4S6 718-786, looked up)
chain: ATVADKPPESIRSRKARAVYPCEAEHSSELSFEIGAIFEDVQTSREPGWLEGTLNGKRGLIPQNYVKLL
notes: SH3 domain construct, aa 718–786 of human GRAF2; same construct as m2 with GST cut off; source: E. coli BL21(DE3) pLysS; released from GST-GRAF2 SH3 beads with Thrombin; not shown: GST, N-terminal, cleaved
